Results reported in patent publication US20210115152A1 (ARBELE, published 2021).

Tests used:
[1] = target: T1, CDH17 on tumor cells (DLD-1, AGS, AsPC1, CDH17-positive pancreatic and colon lines, SW40 with ectopic CDH17) (UniProt Q12864 23-832, limits assumed); assay: cell-based or functional assay
T1 sequence (looked up): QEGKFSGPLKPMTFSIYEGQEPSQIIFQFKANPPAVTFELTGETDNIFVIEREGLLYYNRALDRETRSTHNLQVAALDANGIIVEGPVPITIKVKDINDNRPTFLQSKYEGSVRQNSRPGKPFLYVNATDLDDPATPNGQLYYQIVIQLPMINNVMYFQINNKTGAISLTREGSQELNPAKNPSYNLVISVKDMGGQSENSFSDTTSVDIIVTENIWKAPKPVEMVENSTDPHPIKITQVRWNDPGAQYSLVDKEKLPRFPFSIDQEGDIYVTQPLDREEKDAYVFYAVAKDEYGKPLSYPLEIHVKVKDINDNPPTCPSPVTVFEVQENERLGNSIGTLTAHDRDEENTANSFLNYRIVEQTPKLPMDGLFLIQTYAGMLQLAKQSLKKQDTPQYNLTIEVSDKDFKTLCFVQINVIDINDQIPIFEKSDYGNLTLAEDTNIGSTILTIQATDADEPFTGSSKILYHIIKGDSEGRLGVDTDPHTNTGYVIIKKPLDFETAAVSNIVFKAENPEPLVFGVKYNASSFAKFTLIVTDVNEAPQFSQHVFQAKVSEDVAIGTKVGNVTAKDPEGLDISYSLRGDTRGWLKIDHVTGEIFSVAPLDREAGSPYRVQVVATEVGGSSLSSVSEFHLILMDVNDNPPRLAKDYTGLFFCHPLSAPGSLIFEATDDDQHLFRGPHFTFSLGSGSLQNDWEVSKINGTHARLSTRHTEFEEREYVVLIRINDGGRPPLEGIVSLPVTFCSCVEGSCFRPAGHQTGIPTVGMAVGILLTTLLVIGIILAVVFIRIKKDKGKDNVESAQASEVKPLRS

[2] = target: CD3 on Jurkat T cells (UniProt P07766 23-207); assay: cell-based or functional assay
CD3 on Jurkat T cells, sequence (P07766 23-207): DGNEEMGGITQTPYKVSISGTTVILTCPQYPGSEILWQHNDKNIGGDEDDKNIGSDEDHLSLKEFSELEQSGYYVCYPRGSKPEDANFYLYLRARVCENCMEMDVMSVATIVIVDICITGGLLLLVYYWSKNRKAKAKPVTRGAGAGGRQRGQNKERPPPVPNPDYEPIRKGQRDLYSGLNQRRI

B1: h10G4fL (h10G4U1fL; ARB202), CDH17xCD3 bispecific antibody of the IgG-scFv / fL design, IgG4 (bispecific antibody)
heavy: EVQLVESGGGLVQPGGSLRLSCAASGFTFSSYAMSWVRQTPGKGLEWVAVIDSNGGSTYYPDTVKDRFTISRDNSKNTLYLQMNSLRAEDTAVYYCSSYTNLGAYWGQGTLVTVSSASTKGPSVFPLAPSSKSTSGGTAALGCLVKDYFPEPVTVSWNSGALTSGVHTFPAVLQSSGLYSLSSVVTVPSSSLGTQTYICNVNHKPSNTKVDKRVEPKSCDKTHTCPPCPAPELLGGPSVFLFPPKPKDTLMISRTPEVTCVVVDVSQEDPEVQFNWYVDGVEVHNAKTKPREEQFNSTYRVVSVLTVLHQDWLNGKEYKCKVSNKGLPSSIEKTISKAKGQPREPQVYTLPPSQEEMTKNQVSLTCLVKGFYPSDIAVEWESNGQPENNYKTTPPVLDSDGSFFLYSRLTVDKSRWQEGNVFSCSVMHEALHNHYTQKSLSLSLGKPAGGGGSEVQLVESGGGLVQPGGSLRLSCAASGYSFTGYTMNWVRQAPGKGLEWVALINPYKGVSTYNQKFKDRFTISVDKSKNTAYLQMNSLRAEDTAVYYCARSGYYGDSDWYFDVWGQGTLVTVSSGGGGSGGGGSGGGGSDIQMTQSPSSLSASVGDRVTITCRASQDIRNYLNWYQQKPGKAPKLLIYYTSRLESGVPSRFSGSGSGTDYTLTISSLQPEDFATYYCQQGNTLPWTFGQGTKVEIK
light: DIQMTQSPSSLSASVGDRVTITCRASQDISGYLNWLQQKPGGAIKRLIYTTSTLDSGVPKRFSGSGSGTDFTLTISSLQSEDFATYYCLQYASSPFTFGGGTKVEIKRTVAAPSVFIFPPSDEQLKSGTASVVCLLNNFYPREAKVQWKVDNALQSGNSQESVTEQDSKDSTYSLSSTLTLSKADYEKHKVYACEVTHQGLSSPVTKSFNRGEC
With B1 the “EC50 of IL2 production by PBMC in the presence of AsPC1 tumor cells (5:1, 16 hours)” value [1] was 0.03 nM and the “EC50 of IL2 production by PBMC in the absence of AsPC1 tumor cells” value [2] was ≥ 18.7 nM.
